Measured values as given in the domain aggregation screens of Martell et al. (2025).

Test: soluble fraction after stress (log2 fold change); higher = more stays soluble; pooled small domains, quantitative proteomics
Conditions: stress: 50 degC
How it was run: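 Pooled custom libraries of small protein domains were each held under stress at 50°C. The read-out, high-throughput quantitative proteomics, tracked how much of each protein stayed soluble. This is reported as a base-two log fold change used to indicate aggregation propensity. Higher values mean more protein remains in solution.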

In order of rising “soluble fraction (log2)” value:
1. HMHGETLAAKRREEIKVRIQNIYDQSEQIFGYRKITATLRSQGVVVSEKLVSQLMRELEISSVS  -3.87
2. HMDSGLLSAREREVAGLVLSGMTYAEIGEAIFISPRTAEHHIARIRRRLGATSRTDLIAKLQAIVGID  -3.45
3. HMKRDRLYGITIYLLNHGRTSAKTLAEYFEVSVRTIQRDMDALSMAKIPIIAYPGSDGGYEIQEGYRL  -3.1
4. HMPGRLSRREVEVIELTARGLPAAEMAVRLGISANTIEFHRRRIMQKLGVANAAEMVRRATELGW  -2.1
5. HMEKTTTLFDETTNPGIIYIGKAMPTGSAISEAAAVWAIKTIDTTTDTEIKWADGVTTYTKVWNNRASYSY  -1.76
6. HMPLQLPEPMAELARNGETARLAEALKQGLDIDLRDGKGNTLLMIAAYQGRAETVAMLLKAGA  -1.71
7. HMPVFYATNRQKTTIHNLKRKKGLDDDAYRATIYSFTHGRTDSSKYMYKYEAAELIQKWLDPE  -1.7
8. HMSSFIEAIKQSGTDSLDVIMKNGRVYRYVGIDADRLGYLLEPHQQKLSLEESIGRFYIDYIKGIYEAIE  -1.57
9. HMARGLRPVPSVFGLDVRQATRTLYAAGFQVSIARGSDVRTRPAAGTLLRVGSTVQLEMPRMESA  -1.54
10. HMEDYYKEDYYTEVLKIPKEYIKGFQYYLIEDAEFVNALNAKNKTMTSFLAKKLASDYIEIIHQEQ  -1.46
11. HMTVTKYGKKILEIVSSSRSHMTAEEIFDALRQTYPTVVLATVYNNLNRLWQDDLIRKVSVEGMPDRYD  -1.22
12. HMRNPLYAQVADYVMQQIAAGTYRPHQAIPTEWQLAKKLEVSQGTVRKGLDELVFKQILYRQQGVGTFVAD  -1.19
13. HMGIKDRIVYIMEKEKLSIPLFAKKIGIGPSTLLHIIRGKNAPSLQVVQAIHKAYPDIDLNWLI  -1.08
14. HMSETTSRVLQLLGLLQARRVWTGQELADRLGVTGRSVRRDIERLRDLGYPVHASKGRDGGYQLGA  -1.01
15. HMKIVQHQLQLPVHVAGKFKGMFYKSDFVMSEDYDDDGNMILAVRLPLVDWNKFLKRTDNELSQYIKVTP  -0.858
16. HMVAGQDPVKRQQILDGAKRVFLGVGFDAASMNDITREAGVSKGTIYVYFGSKEELFGALIDR  -0.663
17. HMGRYVIQIASFSSKNNAIEAADKLGGFVVQSGRFYRVRTGPFATRGEADAALASARRVGYRDAFIDTS  -0.531
18. HMAMTITKIEKTSQQKIYYFTDSGRVFKKMSDRSATIAVDDRVELEGGVLGSKFFVTANGSRVKVKEV  -0.516
19. HMKQTDQELAEMLRFRAAQRGLLMSDEVVNYVMTRVERSAKSLIMLLDRIDRAALAQARPVTIPLINEL  -0.499
20. HMKTGIIYGVNGPVIYLKGDTGFKISEMVYVGPEKLVGEVIGLKKHMTTVQVFEETTGLKPGETVIGTGDA  -0.486
21. HMRPILTLEEAKAKALAHAGLKADQVTFTEAKLDWDDGKQVYDIEFYTADFKEYDYEIDAKTGEVLEVDY  -0.452
22. HMTLPELTDRELQILQLLSVGNSSQKIAKQLNISTHTVSTHRKQLLRKLGAQNGADLIRRAQKLGIL  -0.44
23. HMSTVTGLINYLSSGLIKGVGEATARKLVDHFGLDVLDIIQFNPQRLLEVDGIGEARAEMIASSFSEQK  -0.399
24. HMEEQGLPLVIISDGKVLAQNLTLRSLDRAWLQDQLTQHGHSKPEQVFLLTVDERGAVYYVPKE  -0.37
25. HMNSKYILLQVSDIPKTSLVLERQFGVTEYSVQDEHTLRIYDTSLDMAAVNKALVVQDIAVISSQL  -0.353
26. HMKDSKSALQEYALERKMGLPVYEVVDRSGPDHAPQFVIAVSLGEWRLEAKGASKRQAEQQAASLMLEEI  -0.353
27. HMDLLIFSPSLGQHVRDLKRVIDRLHQHGIPVRWQKAKLLREEIEYIGWTWKSGGLIDPTNV  -0.31
28. HMVMIPDLVGETIEDAKDILEGLGFEVEVRSEFPESDWGRPFARVTSLSPSAGQEVAKGTLVIIRSF  -0.288
29. HMPRNMTFAIRGEYITLDALLKAVGAADSGAQAKHRIAEGEVTVDGVVETRKTRKLRGGETVVVDDLAVVL  -0.272
30. HMQTTEDMEINAKVDEYLREMYLWNDEYKTLNLDHNKGYEDFFYDALGSMTTNTLDKKTYVGSDGKTYYNL  -0.248
31. HMSLGSSLFHARKKSGLTQEAVAEKLGVSRQTISKWETNETLPDIRQSKGLAMLYHMTLDELIE  -0.223
32. HMFKINQKVKLIAPLPYLKTSENMPMLRPPDLVAIDEIGEVLSLKSPETVEVRFRRGSFLIDIDKLEKVD  -0.219
33. HMNNDIDRVFAELTVLSQKKGYLVFDDIEKGTEDLSVNEVDWLTNRLLTSGVEIFDDVPDTIK  -0.205
34. HMKREETLKALATKNANYVARSGRRYSFEPMNPYERRIIHTAVQEIEGVTSRSIGSGMDRRVLIEPEGGV  -0.194
35. HMSKTQVKSVLDDIKGIGVVRRKALIKHFNDIEAIKAAQLAELKAVAGMDSKSAQSVYDFFHK  -0.186
36. HMAEVHVDGVTYQFSNPEQAVKFARKIAKELGLKVEVHGETVHVK  -0.156
37. HMNKADFLRKLDRELSVLDQEERKEILSFYEERFYTGTNYENKTELDIINELENPEIIAKNVLEEYGV  -0.154
38. HMTAGYFTRGSHQDEVLRIQGTPSGVNKYSDHEVWNYGLSSVDISLRDRRVTEWNNISGNLKV  -0.152
39. HMWQPIKLDRGDWQNSLQVGDRVFVRGIPRPVEILSAVDEENNIEVLMGTMRAKIPVYQLDKPAENFIDTT  -0.15
40. HMEDFDLSDTERKIIAQIGHGYSNKEIAQKLGFSEGTIRNYLSVILDKLDLRDRTQLAIWYLSR  -0.143
41. HMEDYTPLQELGLKARYIELLEKGGIFSVEDLVQKSVDDLKDIDGIGEKTAKEIWEIVDSMVDF  -0.137
42. HMAEDLRTLDGIDEDLLRDLAQAGITTRDGLAELSIDELREITGVEPGEAEKIILAARAHWFETDE  -0.135
43. HMTVADMQQKANVKRRNSNSHEAILDATVKLLGSSGYIDFSIEKVASQAGVGKQTIYRWWPSRADLVLEVW  -0.109
44. HMHDLTERQREILQTLASGKMALREILSILSQPPSLRTLRDELYHLKRIGLVDTMGYGRGATWFLTQ  -0.103
45. HMERGEFQKLGRATLEQTLARAGKTLAEVSLKAMLETFAFAAEEDLYEALGRGRVSAAKVGETLFPALKGR  -0.0985
46. HMEISTENESFSNGLLEHPHYTRPPVWEDLKIPAVLMSGHHGKVAEWRKQQSEALTQERRPDLWEAFG  -0.0409
47. HMEYFDDEELDRYKGRTSDSFTDDEAEEFREVMMTMHPEEVKAWNRSLILRDVAMPDQIKDDYIMLAG  -0.0408
48. HMATEVEVPDVVGRQMALATQLLEARKLRVNVAEIYDEKTPPGQVVSQSPEAGSSVKEERVVTIYVSR  -0.0321
49. HMLQESDPEALRGIVKSVLVDHAAVAEEYRAGKQSVLQFLVGQGMKASKGAGNPGLIRDLMLEEL  -0.00903
50. HMRRHLLEMNDAIGRLGRLISEDPADRDVAEVIWAALRGMVMGQMIMNEPIDWQRERRTLVEMAIGR  0.0146
51. HMVTINTASLEKAIADAKAVVKESYTTDSYNAMKAVLDEAEDLLKEEAQDQDTIDAKTEALNAAIEALVKR  0.0369
52. HMNDITVNVEDSKLIVTSNNPEKLPLYIMDIQGHILDKSEITAGTYSFPISDRGTYIVRIGENVYKVI  0.0386
53. HMEDPFATLGVHREASLDEIKRAYRRLAMFWHPDRNPEAVAGTEFKRVHAAYELLLDPQRLAEWQQAQAT  0.04
54. HMSAATGIINTDNVNIRSGPATTYDAVGRLNQGSSVEILSSRNDWYQIQANSLKGWVRNDLLNVQK  0.0404
55. HMSKRIFPNEFQRNSPDAMVMLDKMNLSRINVDPLTKSLTLNGGGSVKTLLNGREVSAVEIAALSP  0.0444
56. HMSYKYYSTERPLMPGSFPKPQGNTVLNIENFNDRSYVGKIGREAWGFIEYEKPISPVLLDDYELVAA  0.0613
57. HMGRQTITLPDFSGQDLEQVKARLTEWGLVPEEKSVFSDSVPLGSVVRTVPAEGDEVSVGDTVTVYKSLGR  0.0656
58. HMSLSEGVSADVVADVQARLMELGYMDEDDPDGNFSESTRIAVEHFQQQAGLPVTGTVDKATLDALNSPD  0.0669
59. HMSKGKNEVIAYLKAHNDHRLTVAEILDGLKEEGISINRSTIYRNLDKLVENGDILAFKGKDSESAFYQYS  0.0754
60. HMGQTYTITINPTPADAKVIIDGVATNSVEAIDGRTLIWSVSKPGYLTKSGNYTVTGKNETLNIVLKEDPD  0.087
61. HMVEVPYSEFLKELDAGNVKDVYVSNGESQIQFTKKDQKQWNLSYKTGPIPGDDLVKRLQNADVENFT  0.0879
62. HMEDVPYMIKLPSHHYLTKMVDGSTGWSLVQNSNTVVGSSKEELLKQYPEYEDFIVQEPLNV  0.101
63. HMASFTDAQALEVKDLYPDWSKIPEGTHLEAGQRVRYNGNLYKVRTGQAHDKQSTWTPTDAASLFEAID  0.116
64. HMNWQLITDPKELRELVQKTIADNEAGTSRLREGDMGPLEFLTGIIMKKTRGLADPTMVKALLKEELNI  0.132
65. HMYSDIERAMTNAPEQFANKQAVLDFLNKNRIKKSEVDDYRIASLLKLYDDASPISKTEIISQVRT  0.149
66. HMETYTVSSKDGYANVRNEATVNSDLIAELKNGTLVTKFKEKGEWYYIEFEREDGTPFDYGYIHKSQLK  0.181
67. HMDTVSYMSDAVKAGAVTPSHDEEARARYLLYAGFGAILLFLRYEASEPGDIESAIREFMERYGPVTAELY  0.243
68. HMNGADPYEQLGVTRDASDDELKAAHRKLSRENHPDTLMAKGMPPEFIEQANDKMARINAAWDQIRKERGI  0.26
69. HMDTEVVMINVVGMNIDKAKNSLNHKNILYKISYQDVSEGENNVVLKQSISSNTKIKKGQVVSLVVGKLN  0.352
70. HMKEGTIPPVVNRTLSDAEFVLKSYGYELGRVSEQHSDMPKDIVIKQSPEAGTVADPGTRVDVVVSIGKA  0.404
71. HMGKAPREVQVGELLRVPALNAEGEVLRRDGESVELSIQGKKLRLPLAQLEAFSPRRFARRGEGKVRGRIE  0.432
72. HMDTVEFPVQVNGKVRGKITVAADAGKDAIETAALADEKVLAFLDGATPKKVIVVPGKLVNLVVQPG  0.435
73. HMNNIPFIITDERLNVIQSHLVPREVLDHPDRLRRQIDRFTEENQPKTVNYWWGPEHRHIIFYGKSK  0.445
74. HMNLLPAGTYKLKDLVTAEDEEIGAKKGDVVIAHEDTPPSDRVLGVDIFPVIHKNTSKKIYVSLEDI  0.46
75. HMGLSAALKARLREVINEMAKSGAQPKLREWALAEGIGNFAKPETPEAAEAVIAKAQELLAEA  0.547
